Data taken from paper PMC7923384.

Target: ZMYND8 (UniProt Q9ULU4)
Assay: co-IP of Flag-ZMYND8 and Myc-EZH2
Conditions: reference: wild type; sites T487

EZH2 (from UniProt Q15910) T487A was tested, and the “binding against the reference” value was “weaker”.
